± gives the uncertainty stated by the source.
B1: Chromodomain-helicase-DNA-binding protein 5, residues 411 to 463; numbered along this chain, Q8TDI0 (parent)
chain: EEDDHMEFCRVCKDGGELLCCDACPSSYHLHCLNPPLPEIPNGEWLCPRCTCP

Variants of: B1
Experiment: abundance fitness (aPCA) (normalised: wild type 0, dead -1); higher = more abundant; growth selection in yeast, the domain comes from the species named
Details: Homo sapiens

Abundance fitness, by site and new letter:
L46: P -0.559 ± 0.12, H -0.152 ± 0.11, C 0.088 ± 0.096, I 0.116 ± 0.093, R -0.034 ± 0.06, W -0.155 ± 0.083, T -0.102 ± 0.058, A -0.027 ± 0.07, G -0.502 ± 0.081, E -0.025 ± 0.054, Y -0.115 ± 0.093, K 0.079 ± 0.089, F 0.101 ± 0.091, N 0.294 ± 0.12, V -0.017 ± 0.054, M -0.188 ± 0.082, S 0.061 ± 0.059, Q -0.063 ± 0.12, D -0.65 ± 0.19
E39: K -0.104 ± 0.12, Y -0.329 ± 0.37, W -0.617 ± 0.24, N 0.116 ± 0.18, S 0.091 ± 0.07, D -0.203 ± 0.14, F -0.235 ± 0.27, A 0.006 ± 0.084, C -0.438 ± 0.37, G -0.135 ± 0.092, V 0.025 ± 0.068, H 0.098 ± 0.17, R -0.301 ± 0.088, P 0.139 ± 0.12, I -0.138 ± 0.23, Q 0.008 ± 0.19, T -0.209 ± 0.14, L -0.418 ± 0.13, M -0.113 ± 0.22
I40: K -0.104 ± 0.18, E -0.129 ± 0.11, Y -0.059 ± 0.33, D -0.534 ± 0.35, R -0.121 ± 0.097, G -0.09 ± 0.098, W -0.633 ± 0.39, L 0.147 ± 0.086, P 0.052 ± 0.079, V -0.027 ± 0.11, A -0.206 ± 0.12, M -0.112 ± 0.14, Q 0.132 ± 0.12, N 0.063 ± 0.14, C 0.116 ± 0.1, S -0.058 ± 0.13, H -0.151 ± 0.24, T 0.113 ± 0.13
P38: M -0.563 ± 0.44, A 0.358 ± 0.22, I -0.564 ± 0.29, T -0.198 ± 0.31, F -0.083 ± 0.21, Y 0.17 ± 0.19, S -0.13 ± 0.08, L 0.263 ± 0.15, C -0.63 ± 0.43, H -0.016 ± 0.27
C47: R -0.737 ± 0.058, G -0.533 ± 0.074, A -0.542 ± 0.077, E -0.853 ± 0.14, K -0.848 ± 0.21, S -0.653 ± 0.048, M -0.906 ± 0.17, P -0.899 ± 0.085, T -0.551 ± 0.12, L -0.716 ± 0.052, I -0.009 ± 0.15, W -0.914 ± 0.067, F -0.318 ± 0.12, Q -0.192 ± 0.11, H -0.235 ± 0.2, V -0.808 ± 0.084, N -0.285 ± 0.17, D -0.678 ± 0.15
G43: R -0.074 ± 0.08, A 0.047 ± 0.076, S -0.008 ± 0.065, L -0.152 ± 0.068, T -0.142 ± 0.09, F 0.149 ± 0.13, Q 0.039 ± 0.12, K -0.037 ± 0.12, M -0.333 ± 0.2, P -0.041 ± 0.047, N 0.039 ± 0.07, H -0.148 ± 0.1, C -0.112 ± 0.087, I -0.392 ± 0.14, D -0.238 ± 0.11, V 0.004 ± 0.066, E 0.003 ± 0.071
L37: Y -0.109 ± 0.07
W45: A -0.45 ± 0.058, L -0.52 ± 0.047, T -0.7 ± 0.082, S -0.459 ± 0.071, P -0.472 ± 0.067, Y -0.299 ± 0.1, D -0.761 ± 0.18, E -0.523 ± 0.083, H -0.512 ± 0.2, R -0.449 ± 0.043, Q -0.506 ± 0.061, M -0.491 ± 0.088, C -0.604 ± 0.1, I -0.667 ± 0.16, G -0.457 ± 0.045, V -0.579 ± 0.046, F -0.593 ± 0.2
N42: D -0.028 ± 0.049, S 0.058 ± 0.053, I -0.346 ± 0.19, R -0.052 ± 0.075, F -0.266 ± 0.083, P 0.16 ± 0.075, T 0.014 ± 0.065, Q -0.211 ± 0.15, M -0.137 ± 0.088, G 0.12 ± 0.06, A 0.011 ± 0.068, W -0.142 ± 0.092, E -0.022 ± 0.071, H -0.054 ± 0.1, Y 0.059 ± 0.12, C 0.033 ± 0.1, K -0.144 ± 0.093
P41: S 0.047 ± 0.078, W -0.393 ± 0.11, Q -0.051 ± 0.11, Y -0.043 ± 0.2, I -0.159 ± 0.14, D 0.246 ± 0.12, V 0.043 ± 0.069, A -0.144 ± 0.087, L -0.019 ± 0.059, G 0.064 ± 0.078, T 0.002 ± 0.073, R -0.004 ± 0.045, N 0.168 ± 0.15, M -0.262 ± 0.091
E44: A -0.095 ± 0.048, T 0.02 ± 0.056, K 0.102 ± 0.071, G -0.027 ± 0.045, M -0.312 ± 0.075, P -0.071 ± 0.063, I -0.156 ± 0.1, N -0.083 ± 0.09, Q 0.041 ± 0.053, H 0.056 ± 0.073, F -0.361 ± 0.085, C -0.026 ± 0.068, S 0.031 ± 0.059, D 0.051 ± 0.061, Y -0.232 ± 0.081, V -0.105 ± 0.04, L -0.186 ± 0.058
